Test results taken from paper PMC12173945, “Import mechanism of peroxisomal proteins with an N-terminal signal sequence” (Nature Cell Biology, 2025).

Key:
Design in all cases: species or system yeast (S. cerevisiae)
yeast PEX7 = assay: Bead-binding assay: PEX39 and PEX7 (Fig. 5c, Extended Data Fig. 9a); details: PEX39-coated beads
From the text: (§1) Cysteine-containing peptides were covalently conjugated to thiol-reactive SulfoLink coupling resin (Thermo Fisher, catalogue number 20401) according to the manufacturer’s instructions. The prepared beads were then mixed with Assay Buffer containing the fluorescently labelled protein as well as additional components indicated in the text, and the resulting bead suspensions were transferred to a 384-well glass-bottomed plate (Cellvis, P384-1.5H-N). GST-fusion proteins were instead mixed with glutathione agarose 4B (Prometheus, 20-543) in Assay Buffer containing the fluorescently labelled protein and additional components indicated in the text; the resulting bead suspensions were then transferred to a glass-bottomed plate as above. The plates were incubated at RT for the durations specified in the text and directly imaged on the spinning-disk confocal platform described earlier for peroxisomal import reactions in Xenopus egg extract. Note that imaging the beads directly in the binding reaction preserves the equilibrium and thereby allows even weak interactions to be detected. Fluorescence was collected through a Nikon ×10 0.45 NA Plan Apo air objective, and images were acquired using the Nikon NIS-Elements software and a 16-bit digitizer without binning. Imaging parameters were configured to maximize the SNR while avoiding saturation. […]

[1] = system: PEX39–PEX7 complex and PTS2–GFP cargo; assay: Bead-binding assay: recruitment of PTS2–GFP to PEX7- or PEX39-coated beads (Fig. 7b,c)
From the text: as §1

[2] = system: PEX7–receptor–cargo complex on PEX39-coated beads; assay: Bead-binding assay: recruitment of PEX7–receptor–cargo complex to PEX39-coated beads (Fig. 7d, 8a); details: no peptide, Fig. 7d
From the text: Cysteine-containing peptides were covalently conjugated to thiol-reactive SulfoLink coupling resin (Thermo Fisher, catalogue number 20401) according to the manufacturer’s instructions. The prepared beads were then mixed with Assay Buffer containing the fluorescently labelled protein as well as additional components indicated in the text, and the resulting bead suspensions were transferred to a 384-well glass-bottomed plate (Cellvis, P384-1.5H-N). GST-fusion proteins were instead mixed with glutathione agarose 4B (Prometheus, 20-543) in Assay Buffer containing the fluorescently labelled protein and additional components indicated in the text; the resulting bead suspensions were then transferred to a glass-bottomed plate as above. The plates were incubated at RT for the durations specified in the text and directly imaged on the spinning-disk confocal platform described earlier for peroxisomal import reactions in Xenopus egg extract. Note that imaging the beads directly in the binding reaction preserves the equilibrium and thereby allows even weak interactions to be detected. Fluorescence was collected through a Nikon ×10 0.45 NA Plan Apo air objective, and images were acquired using the Nikon NIS-Elements software and a 16-bit digitizer without binning. Imaging parameters were configured to maximize the SNR while avoiding saturation. Samples intended to be compared were imaged using identical acquisition settings.

B1: PEX39 (WT): PEX39 from S. cerevisiae (GenBank accession no. NP_012546.4) (protein)
chain: MAAGGELSYEELLDHILNNKPIPNIVEVPNVTLDEGLASTPSLRPRPRPWEGQLQHQSHQGSLDKPNISLDIDQESLEGMTSLTRLSECYDIQSKLQINDSDNDNDDNNNDNNKGDGNDDDNNTVTANPTAR
modifications: left off: GST, N-terminal, cleaved
Yeast PEX7
  Recruitment / binding of PEX7 in words: could recruit PEX7–GFP
[1]
  Recruitment of PTS2–GFP cargo to PEX39–PEX7: PTS2–GFP cargo was indeed recruited to PEX7-coated beads in the presence of PEX39
[2]
  Recruitment of PEX7–PEX5-21–PTS2–GFP complex to PEX39-coated beads: could be recruited to beads coated with wild-type PEX39
